# Experimental data from the supplement of paper PMC9170038.
# System: K4 kissing-loop RNA reporter
# Assay: apparent KD of K4 kissing-loop reporter; higher = weaker reporter binding
# Details: Eterna round: R107; input ligand: FMN 200 uM
# Experimental: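 RNA-MaP round R107: designed RNA switches with theophylline, tryptophan, arginine or FMN aptamers are transcribed on-chip within common flanks. They are titrated with a labelled K4 kissing-loop RNA reporter in RNA-MaP buffer (100 mM Tris pH 7.5, 80 mM KCl, 4 mM MgCl2), without ligand or with the indicated ligand. Median apparent KD per design.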
# 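Further: bound reporter read as fluorescence of individual clusters on recovered sequencing chips by microscopy, with normalized cluster intensities fitted with a binding model.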
row,Sequence,apparent KD of K4 kissing-loop reporter [nM]
1,CGCAAUAUUACGGAGUGAUGUUUCGUAGUCCGAGGACCGGUACGGCCGCCACUCGCUGGCGUUGGCCCAUAGACCGACGGAAUCG [theeternabot_sameState_KL_Trp_A_39],246
2,AAUUUAUAUUUAUUCUUUAAAUGUUCAGAAGGAGCGUGAAUUAUCACAGGUAGGUCGCUGAGCUAGUGAUGUUAGCUAUAUACUA [JR_ExcArginiA_Sub007],50.3
3,UGAGGGAUCUCGGCCGCCACUCGUGGGAAAUGGGCCUCAGGGAUAUAGUGAUGUUAUGUAAAGAAGAGGACCGGGAGAAGGAAGG [ExTryptoB.Dh],230
4,UUUUAAAUGUCUGAUACCAGAGAAAAUAUAUGUAGUGAUGUUAUAUACAAAUUUAAUAAGCUCCCUUGGCAGCAGUAUGAAUUUU [AstrosExc-TheB#12],616
5,CCUCACGUAGGACUAGUGAUGUUAGACUACCGAGGACCGGUACGGCCGCCACUCGUCGUACAAGAUAACCAUCUGCCAGUAUACA,122
6,AAAUAGAUCAGUCACCCAGUGAUGUUGGAAGGAGCGUGCGAAAGCACAGGUAGGUCGCCAUAAUAAAAGUGGCUGAUCAAAAUAA,446
7,GUUAUUCUAAACGCAGUAGUGAUGUUGAUGCGAGGACCGGUACGGCCGCCACUCGACUGCCGUCACGCCCGUCCAACAGCCGGAG [theeternabot_exclusion_KL_Trp_A_20],431
8,AAGCAGUCACUCGAAGCCAUCGAAGAUGGGCGAGGACCGGUACGGCCGCCACUCGGAGUGAUGUUCCGAGGACUGCAAAAUAAAA [MatMod 4 - Jieux - Exclusion - Tryptophan A],507
9,UGUCAUUGGUCGGCCGCCACUUCAUAAAAGAGUGAUGUUCUAAAGACGGAUCGAAAGAUCUGUCGAAGGACCGGGACCGAUGACU [TrypBS 19 #SwitchBubble #StaticStem],508
10,AAGCAGUCACUCGACACCAUCGAAGAUGGGCGAGGACCGGUACGGCCGCCACUCGGAGUGAUGUUCUGAUGACUGCAAAAUAAAA [MatMod 9 - Jieux - Exclusion - Tryptophan A],99.9
11,UCGAGUGAUGUUCGAUUUCAGUGAAGAGAUACCAGCCGCAGUGUAGGCCCUUGGCAGCUCGGCUAUUAUGACAUAUGCAGUUUAG [theeternabot_sameState_KL_Theo_A_29],125
12,CAAUGAAUAUAAGAUGAUAUCAUAACAGAAGGAGCGAGUGAUAACUCAGGUAGGUCGCUGAAUUUAUCGAGUGAUGUUCGAUAAA [Same State Arginine A GF10],208
13,UAAUCACUCGAACUUGCAACUCGAGUGGAACGAGGACCGGUACGGCCGCCACUCGAUAACUUGCAGUGAUGUUGCAAGUAAGAAU [(T)''-(K)'-(T)'-(T1)-(T2)-(K1)-(K2)_Design8],333
14,CAUUCUAUAUGCAGUGAUGUUGCAACUGAUACCAGUAUCGAAAGAUACCCUUGGCAGCGGAAAACCGCUACGUAAUUUAAGAAUG [Ex Theophylline A K4 22],375
15,ACUGAGCAUGCGGCCGCCACUUCAGAACGUCGCCCAAAGGGCGACGCCUCCACAGUGAUGUUGUGGAGGACCGGGCAUGUUCAGA [Omei KL Tryp B Exc A v2],152
16,CAGCAUCAGGUUCAAACUGCAUGUACUGAUACCAGUCUUAAGAUCGACCCUUGGCAGCAGCUCCCGAGUGAUGUUCGUAGCGAGC [theeternabot_exclusion_KL_Theo_A_41],362
17,UGUCAUUGGUCUGAUACCAGAAGAUAAUCUGGAGUGAUGUUCCAAGUACGACAAAGUCGCUUCCCUUGGCAGCAGACCGAUGACU [TheoBS 19 #SwitchBubble 13 #StaticStem],1040

# Same assay, conditions: Eterna round: R107; input ligand: arginine 13.2 mM
row,Sequence,apparent KD of K4 kissing-loop reporter [nM]
1,CGCAAUAUUACGGAGUGAUGUUUCGUAGUCCGAGGACCGGUACGGCCGCCACUCGCUGGCGUUGGCCCAUAGACCGACGGAAUCG [theeternabot_sameState_KL_Trp_A_39],252
2,AAUUUAUAUUUAUUCUUUAAAUGUUCAGAAGGAGCGUGAAUUAUCACAGGUAGGUCGCUGAGCUAGUGAUGUUAGCUAUAUACUA [JR_ExcArginiA_Sub007],95.3
3,UGAGGGAUCUCGGCCGCCACUCGUGGGAAAUGGGCCUCAGGGAUAUAGUGAUGUUAUGUAAAGAAGAGGACCGGGAGAAGGAAGG [ExTryptoB.Dh],229
4,UUUUAAAUGUCUGAUACCAGAGAAAAUAUAUGUAGUGAUGUUAUAUACAAAUUUAAUAAGCUCCCUUGGCAGCAGUAUGAAUUUU [AstrosExc-TheB#12],766
5,CCUCACGUAGGACUAGUGAUGUUAGACUACCGAGGACCGGUACGGCCGCCACUCGUCGUACAAGAUAACCAUCUGCCAGUAUACA,103
6,AAAUAGAUCAGUCACCCAGUGAUGUUGGAAGGAGCGUGCGAAAGCACAGGUAGGUCGCCAUAAUAAAAGUGGCUGAUCAAAAUAA,287
7,GUUAUUCUAAACGCAGUAGUGAUGUUGAUGCGAGGACCGGUACGGCCGCCACUCGACUGCCGUCACGCCCGUCCAACAGCCGGAG [theeternabot_exclusion_KL_Trp_A_20],142
8,AAGCAGUCACUCGAAGCCAUCGAAGAUGGGCGAGGACCGGUACGGCCGCCACUCGGAGUGAUGUUCCGAGGACUGCAAAAUAAAA [MatMod 4 - Jieux - Exclusion - Tryptophan A],365
9,UGUCAUUGGUCGGCCGCCACUUCAUAAAAGAGUGAUGUUCUAAAGACGGAUCGAAAGAUCUGUCGAAGGACCGGGACCGAUGACU [TrypBS 19 #SwitchBubble #StaticStem],168
10,AAGCAGUCACUCGACACCAUCGAAGAUGGGCGAGGACCGGUACGGCCGCCACUCGGAGUGAUGUUCUGAUGACUGCAAAAUAAAA [MatMod 9 - Jieux - Exclusion - Tryptophan A],60.1
11,UCGAGUGAUGUUCGAUUUCAGUGAAGAGAUACCAGCCGCAGUGUAGGCCCUUGGCAGCUCGGCUAUUAUGACAUAUGCAGUUUAG [theeternabot_sameState_KL_Theo_A_29],121
12,CAAUGAAUAUAAGAUGAUAUCAUAACAGAAGGAGCGAGUGAUAACUCAGGUAGGUCGCUGAAUUUAUCGAGUGAUGUUCGAUAAA [Same State Arginine A GF10],158
13,UAAUCACUCGAACUUGCAACUCGAGUGGAACGAGGACCGGUACGGCCGCCACUCGAUAACUUGCAGUGAUGUUGCAAGUAAGAAU [(T)''-(K)'-(T)'-(T1)-(T2)-(K1)-(K2)_Design8],341
14,CAUUCUAUAUGCAGUGAUGUUGCAACUGAUACCAGUAUCGAAAGAUACCCUUGGCAGCGGAAAACCGCUACGUAAUUUAAGAAUG [Ex Theophylline A K4 22],445
15,ACUGAGCAUGCGGCCGCCACUUCAGAACGUCGCCCAAAGGGCGACGCCUCCACAGUGAUGUUGUGGAGGACCGGGCAUGUUCAGA [Omei KL Tryp B Exc A v2],113
16,CAGCAUCAGGUUCAAACUGCAUGUACUGAUACCAGUCUUAAGAUCGACCCUUGGCAGCAGCUCCCGAGUGAUGUUCGUAGCGAGC [theeternabot_exclusion_KL_Theo_A_41],339
17,UGUCAUUGGUCUGAUACCAGAAGAUAAUCUGGAGUGAUGUUCCAAGUACGACAAAGUCGCUUCCCUUGGCAGCAGACCGAUGACU [TheoBS 19 #SwitchBubble 13 #StaticStem],759

# Same assay, conditions: Eterna round: R107; input ligand: none
row,Sequence,apparent KD of K4 kissing-loop reporter [nM]
1,CGCAAUAUUACGGAGUGAUGUUUCGUAGUCCGAGGACCGGUACGGCCGCCACUCGCUGGCGUUGGCCCAUAGACCGACGGAAUCG [theeternabot_sameState_KL_Trp_A_39],257
2,AAUUUAUAUUUAUUCUUUAAAUGUUCAGAAGGAGCGUGAAUUAUCACAGGUAGGUCGCUGAGCUAGUGAUGUUAGCUAUAUACUA [JR_ExcArginiA_Sub007],67.7
3,UGAGGGAUCUCGGCCGCCACUCGUGGGAAAUGGGCCUCAGGGAUAUAGUGAUGUUAUGUAAAGAAGAGGACCGGGAGAAGGAAGG [ExTryptoB.Dh],320
4,UUUUAAAUGUCUGAUACCAGAGAAAAUAUAUGUAGUGAUGUUAUAUACAAAUUUAAUAAGCUCCCUUGGCAGCAGUAUGAAUUUU [AstrosExc-TheB#12],873
5,CCUCACGUAGGACUAGUGAUGUUAGACUACCGAGGACCGGUACGGCCGCCACUCGUCGUACAAGAUAACCAUCUGCCAGUAUACA,117
6,AAAUAGAUCAGUCACCCAGUGAUGUUGGAAGGAGCGUGCGAAAGCACAGGUAGGUCGCCAUAAUAAAAGUGGCUGAUCAAAAUAA,487
7,GUUAUUCUAAACGCAGUAGUGAUGUUGAUGCGAGGACCGGUACGGCCGCCACUCGACUGCCGUCACGCCCGUCCAACAGCCGGAG [theeternabot_exclusion_KL_Trp_A_20],478
8,AAGCAGUCACUCGAAGCCAUCGAAGAUGGGCGAGGACCGGUACGGCCGCCACUCGGAGUGAUGUUCCGAGGACUGCAAAAUAAAA [MatMod 4 - Jieux - Exclusion - Tryptophan A],350
